In patent publication EP4667491A1 (Genome and Company, dated 2025):
Residue numbers refer to the chain shown, from its start. Names may count otherwise.

B1: A114-IgG antibody (antibody, V domains shown)
VH: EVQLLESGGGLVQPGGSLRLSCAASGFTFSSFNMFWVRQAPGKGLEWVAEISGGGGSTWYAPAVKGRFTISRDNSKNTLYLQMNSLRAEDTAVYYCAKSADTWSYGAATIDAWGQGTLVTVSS
VL: ELTQDPAVSVALGQTVRITCSGSSGSYGWYQQKPGQAPVLVIYDNTNRPSGIPDRFSGSSSGNTASLTITGAQAEDEADYYCGGYWGSTDVFGGGTKLTVL
notes: VH fused to CH1, hinge, CH2 and CH3 of human IgG4 (S228P); also called A114-IgG Ab; Al14-IgG Ab
B2: A108-IgG antibody (antibody, V domains shown)
VH: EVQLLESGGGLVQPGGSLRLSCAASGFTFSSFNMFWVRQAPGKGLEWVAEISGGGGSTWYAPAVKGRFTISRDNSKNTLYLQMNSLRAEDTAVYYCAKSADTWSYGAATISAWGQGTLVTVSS
VL: B1 VL with W86D
notes: VH fused to CH1, hinge, CH2 and CH3 of human IgG4 (S228P); also called A108-IgG Ab
B3: A102-IgG antibody (antibody, V domains shown)
VH: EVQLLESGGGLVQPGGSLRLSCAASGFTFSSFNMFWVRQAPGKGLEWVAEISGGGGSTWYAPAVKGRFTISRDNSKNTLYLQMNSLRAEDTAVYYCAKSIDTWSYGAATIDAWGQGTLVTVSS
VL: B1 VL with W86D
notes: VH fused to CH1, hinge, CH2 and CH3 of human IgG4 (S228P); also called A102-IgG Ab
B4: A105-IgG antibody (antibody, V domains shown)
VH: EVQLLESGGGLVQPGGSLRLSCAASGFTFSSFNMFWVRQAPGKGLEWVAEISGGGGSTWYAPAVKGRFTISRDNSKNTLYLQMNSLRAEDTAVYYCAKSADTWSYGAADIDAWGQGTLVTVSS
VL: B1 VL with W86D
notes: VH fused to CH1, hinge, CH2 and CH3 of human IgG4 (S228P); also called A105-IgG Ab
B5: A109-IgG antibody (antibody, V domains shown)
VH: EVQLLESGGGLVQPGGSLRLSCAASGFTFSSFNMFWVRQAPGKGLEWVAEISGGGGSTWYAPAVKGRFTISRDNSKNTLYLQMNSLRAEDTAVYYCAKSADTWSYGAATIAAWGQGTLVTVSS
VL: B1 VL with W86D
notes: VH fused to CH1, hinge, CH2 and CH3 of human IgG4 (S228P); also called A109-IgG Ab
B6: A104-IgG antibody (antibody, V domains shown)
VH: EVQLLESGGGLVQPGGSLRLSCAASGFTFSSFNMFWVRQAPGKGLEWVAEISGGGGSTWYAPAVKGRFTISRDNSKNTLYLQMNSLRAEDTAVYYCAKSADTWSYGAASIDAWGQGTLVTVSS
VL: B1 VL with W86D
notes: VH fused to CH1, hinge, CH2 and CH3 of human IgG4 (S228P); also called A104-IgG Ab
B7: A103-IgG antibody (antibody, V domains shown)
VH: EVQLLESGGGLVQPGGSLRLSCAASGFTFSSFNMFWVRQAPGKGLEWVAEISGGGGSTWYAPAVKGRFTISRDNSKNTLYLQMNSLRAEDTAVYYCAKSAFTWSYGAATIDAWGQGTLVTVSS
VL: B1 VL with W86D
notes: VH fused to CH1, hinge, CH2 and CH3 of human IgG4 (S228P); also called A103-IgG Ab
B8: A106-IgG antibody (antibody, V domains shown)
VH: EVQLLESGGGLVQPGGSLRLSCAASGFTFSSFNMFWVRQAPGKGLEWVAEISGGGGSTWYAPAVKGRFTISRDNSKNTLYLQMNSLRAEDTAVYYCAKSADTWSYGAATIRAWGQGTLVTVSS
VL: B1 VL with W86D
notes: VH fused to CH1, hinge, CH2 and CH3 of human IgG4 (S228P); also called A106-IgG Ab
B9: A112-IgG antibody (antibody, V domains shown)
VH: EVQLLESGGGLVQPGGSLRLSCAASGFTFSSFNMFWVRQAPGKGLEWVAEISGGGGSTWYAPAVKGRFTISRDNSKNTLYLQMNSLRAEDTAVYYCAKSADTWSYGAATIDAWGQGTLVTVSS
VL: B1 VL with S23R, W86D
notes: VH fused to CH1, hinge, CH2 and CH3 of human IgG4 (S228P); also called A112-IgG Ab
B10: A206-IgG antibody (antibody, V domains shown)
VH: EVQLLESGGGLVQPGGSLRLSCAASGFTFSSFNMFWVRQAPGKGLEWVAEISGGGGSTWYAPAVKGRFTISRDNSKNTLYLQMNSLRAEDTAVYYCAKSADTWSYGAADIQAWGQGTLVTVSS
VL: B1 VL with S23R
notes: VH fused to CH1, hinge, CH2 and CH3 of human IgG4 (S228P); also called A206-IgG Ab
B11: A211-IgG antibody (antibody, V domains shown)
VH: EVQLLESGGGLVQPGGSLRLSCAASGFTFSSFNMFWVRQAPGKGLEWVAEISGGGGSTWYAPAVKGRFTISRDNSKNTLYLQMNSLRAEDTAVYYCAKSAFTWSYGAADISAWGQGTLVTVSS
VL: B1 VL with S23R
notes: VH fused to CH1, hinge, CH2 and CH3 of human IgG4 (S228P); also called A211-IgG Ab
B12: A217-IgG antibody (antibody, V domains shown)
VH: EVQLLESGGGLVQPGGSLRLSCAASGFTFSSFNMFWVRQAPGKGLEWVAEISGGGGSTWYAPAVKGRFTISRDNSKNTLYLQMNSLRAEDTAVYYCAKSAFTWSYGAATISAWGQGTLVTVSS
VL: B1 VL
notes: VH fused to CH1, hinge, CH2 and CH3 of human IgG4 (S228P); also called A217-IgG Ab
B13: A209-IgG antibody (antibody, V domains shown)
VH: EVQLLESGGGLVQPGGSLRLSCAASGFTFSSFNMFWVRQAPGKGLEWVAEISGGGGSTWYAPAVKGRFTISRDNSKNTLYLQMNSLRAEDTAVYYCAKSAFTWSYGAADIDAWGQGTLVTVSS
VL: B1 VL with S23R
notes: VH fused to CH1, hinge, CH2 and CH3 of human IgG4 (S228P); also called A209-IgG Ab; A209-TgG Ab
B14: A204-IgG antibody (antibody, V domains shown)
VH: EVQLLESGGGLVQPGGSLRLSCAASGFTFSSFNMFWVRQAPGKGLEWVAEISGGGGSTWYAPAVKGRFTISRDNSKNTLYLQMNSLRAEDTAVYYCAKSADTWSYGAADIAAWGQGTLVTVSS
VL: B1 VL with S23R
notes: VH fused to CH1, hinge, CH2 and CH3 of human IgG4 (S228P); also called A204-IgG Ab
B15: A202-IgG antibody (antibody, V domains shown)
VH: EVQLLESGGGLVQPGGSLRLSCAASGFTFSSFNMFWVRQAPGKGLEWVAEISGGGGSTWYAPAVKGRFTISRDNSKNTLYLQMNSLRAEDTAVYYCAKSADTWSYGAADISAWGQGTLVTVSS
VL: B1 VL with S23R
notes: VH fused to CH1, hinge, CH2 and CH3 of human IgG4 (S228P); also called A202-IgG Ab

Target: T1, human CNTN4 expressed on the cell surface (human, UniProt Q8IWV2 19-1000)
T1 construct: whole, on cells; also called human CNTN4 cell
T1 sequence (looked up): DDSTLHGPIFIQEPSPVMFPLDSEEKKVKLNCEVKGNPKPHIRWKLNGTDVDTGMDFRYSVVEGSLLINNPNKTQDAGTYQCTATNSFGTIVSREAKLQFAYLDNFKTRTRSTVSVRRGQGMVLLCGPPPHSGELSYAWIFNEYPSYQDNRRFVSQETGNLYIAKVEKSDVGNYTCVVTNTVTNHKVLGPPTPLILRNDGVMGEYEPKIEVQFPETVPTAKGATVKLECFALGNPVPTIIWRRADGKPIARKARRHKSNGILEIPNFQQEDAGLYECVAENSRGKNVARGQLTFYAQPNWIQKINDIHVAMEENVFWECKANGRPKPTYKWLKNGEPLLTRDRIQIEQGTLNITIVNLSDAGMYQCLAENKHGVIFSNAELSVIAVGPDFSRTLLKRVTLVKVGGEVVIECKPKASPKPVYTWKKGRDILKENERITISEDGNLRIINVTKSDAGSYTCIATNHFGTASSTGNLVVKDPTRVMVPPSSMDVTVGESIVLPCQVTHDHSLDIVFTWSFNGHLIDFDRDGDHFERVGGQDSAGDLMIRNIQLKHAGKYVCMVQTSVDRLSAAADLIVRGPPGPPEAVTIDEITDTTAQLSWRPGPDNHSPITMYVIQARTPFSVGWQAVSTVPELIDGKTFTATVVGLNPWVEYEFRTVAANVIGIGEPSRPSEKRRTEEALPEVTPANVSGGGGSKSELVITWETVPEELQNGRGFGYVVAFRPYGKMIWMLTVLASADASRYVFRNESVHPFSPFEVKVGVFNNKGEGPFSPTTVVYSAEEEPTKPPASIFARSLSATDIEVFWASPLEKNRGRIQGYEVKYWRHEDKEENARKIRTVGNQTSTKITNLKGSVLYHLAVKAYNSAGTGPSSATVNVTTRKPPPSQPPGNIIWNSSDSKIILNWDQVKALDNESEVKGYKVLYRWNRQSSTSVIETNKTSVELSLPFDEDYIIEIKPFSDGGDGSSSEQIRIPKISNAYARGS
Assay: flow cytometry; IgG on human CNTN4-overexpressing HEK293 cells

Row | Binder | EC50 [pM] | TOP MFI [MFI]
1 | B1 | 262 | 470
2 | B2 | 74 | 356
3 | B3 | 66 | 328
4 | B4 | 234 | 454
5 | B5 | 82 | 357
6 | B6 | 109 | 358
7 | B7 | 90 | 378
8 | B8 | 86 | 336
9 | B9 | 204 | 422

Target: T2, Human CNTN4 (His-tagged) (human, UniProt Q8IWV2 19-1000, limits assumed)
T2 construct: also called human CNTN4 protein; not shown: His tag
T2 sequence (looked up): T1 sequence (looked up)
Assay: SPR; IgG captured on CM5 chip, His-tagged human CNTN4 as analyte, 1:1 fit

Row | Binder | Kd [pM]
10 | B10 | 702
11 | B11 | 709
12 | B12 | 1180
13 | B13 | 662
14 | B14 | 663

Target: T1, human CNTN4 expressed on the cell …
Assay: flow cytometry; IgG on human CNTN4-overexpressing HEK293 cells
Remark: another data set of the same source

Row | Binder | EC50 [pM]
15 | B1 | 539
16 | B11 | 316

Target: T2, Human CNTN4 (His-tagged)
Assay: ELISA; His-tagged human CNTN4 captured by anti-His antibody, anti-human IgG-HRP

Row | Binder | EC50 [pM]
17 | B10 | 27
18 | B11 | 33
19 | B12 | 33
20 | B13 | 26
21 | B15 | 35
22 | B14 | 15

Target: T2, Human CNTN4 (His-tagged)
Assay: as above
Remark: another data set of the same source

Row | Binder | EC50 [pM]
23 | B1 | 129
24 | B2 | 34
25 | B3 | 57
26 | B4 | 153
27 | B5 | 41
28 | B6 | 69
29 | B7 | 31
30 | B8 | 42
31 | B9 | 75
